Like-named read-outs stand apart in the source and are kept apart here.
What was measured:
[1] = target: cynomolgus monkey Fc gamma receptor CD64 (cynomolgus monkey)
[2] = target: cynomolgus monkey Fc gamma receptor CD64 (cynomolgus monkey); remark: listed apart in the source
[3] = target: cynomolgus monkey Fc gamma receptor CD32a (cynomolgus monkey)
[4] = target: cynomolgus monkey Fc gamma receptor CD32b (cynomolgus monkey)
[5] = target: cynomolgus monkey Fc gamma receptor CD32a (cynomolgus monkey); remark: listed apart in the source

Sequence of Tafasitamab-cxix (research grade biosimilar) (antibody) (heavy): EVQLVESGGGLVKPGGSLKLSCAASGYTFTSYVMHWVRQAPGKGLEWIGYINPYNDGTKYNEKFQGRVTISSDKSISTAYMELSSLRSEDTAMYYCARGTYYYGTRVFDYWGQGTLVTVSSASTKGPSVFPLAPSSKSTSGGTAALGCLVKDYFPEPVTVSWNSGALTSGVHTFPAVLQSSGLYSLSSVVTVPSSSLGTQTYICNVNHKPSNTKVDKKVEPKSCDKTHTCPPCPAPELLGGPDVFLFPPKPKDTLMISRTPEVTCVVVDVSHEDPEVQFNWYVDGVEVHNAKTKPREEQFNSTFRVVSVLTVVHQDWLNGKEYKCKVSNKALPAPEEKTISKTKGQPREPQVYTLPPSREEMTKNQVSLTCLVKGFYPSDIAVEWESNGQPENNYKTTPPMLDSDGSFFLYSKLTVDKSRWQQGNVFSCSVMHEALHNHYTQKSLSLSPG
Sequence of Tafasitamab-cxix (research grade biosimilar) (antibody) (light): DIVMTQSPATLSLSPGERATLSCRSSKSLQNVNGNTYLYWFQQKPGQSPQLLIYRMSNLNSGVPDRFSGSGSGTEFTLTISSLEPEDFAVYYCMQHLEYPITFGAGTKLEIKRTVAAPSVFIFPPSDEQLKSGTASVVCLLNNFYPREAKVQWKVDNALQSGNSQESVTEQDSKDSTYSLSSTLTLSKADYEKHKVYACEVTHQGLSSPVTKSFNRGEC

Row | Substance | Kd [1] | Kd [2] | Kd [3] | Kd [4] | Kd [5]
1 | FMC59-S239D/I332E (huFMC63-S239D/I332E) (antibody) | < 0.02 nM | 1 nM |  |  | 
2 | Rituximab (antibody) | < 0.02 nM |  | 3130 nM | 1460 nM | 5940 nM
3 | Tafasitamab-cxix (research grade biosimilar) (antibody) | < 0.02 nM | 1.8 nM |  |  | 

From US20250084169A1
